Measured values taken from patent EP4763862A1 (Beijing Tide Pharmaceutical Co., Ltd., dated 2026).
Where a chain is given by its changes, count along the chain named.

T1: B7-H4 (UniProt Q7Z7D3 29-258, limits assumed)
T1 construct: not shown: His tag
T1 sequence (looked up): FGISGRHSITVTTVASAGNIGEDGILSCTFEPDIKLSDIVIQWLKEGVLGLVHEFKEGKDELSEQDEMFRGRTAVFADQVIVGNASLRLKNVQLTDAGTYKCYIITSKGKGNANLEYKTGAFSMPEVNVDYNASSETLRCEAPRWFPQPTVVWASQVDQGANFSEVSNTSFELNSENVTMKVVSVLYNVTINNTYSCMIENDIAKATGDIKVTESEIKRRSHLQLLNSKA

T2: B7-2 (UniProt P42081 26-247, limits assumed)
T2 construct: not shown: His tag
T2 sequence (looked up): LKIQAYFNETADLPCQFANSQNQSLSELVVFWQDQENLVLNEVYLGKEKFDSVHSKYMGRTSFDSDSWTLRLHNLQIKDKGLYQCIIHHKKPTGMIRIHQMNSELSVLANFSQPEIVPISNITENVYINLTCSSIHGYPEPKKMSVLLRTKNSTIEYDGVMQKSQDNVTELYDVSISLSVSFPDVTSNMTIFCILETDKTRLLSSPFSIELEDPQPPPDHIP

T3: B7-H2 (UniProt O75144 19-258, limits assumed)
T3 construct: not shown: His tag
T3 sequence (looked up): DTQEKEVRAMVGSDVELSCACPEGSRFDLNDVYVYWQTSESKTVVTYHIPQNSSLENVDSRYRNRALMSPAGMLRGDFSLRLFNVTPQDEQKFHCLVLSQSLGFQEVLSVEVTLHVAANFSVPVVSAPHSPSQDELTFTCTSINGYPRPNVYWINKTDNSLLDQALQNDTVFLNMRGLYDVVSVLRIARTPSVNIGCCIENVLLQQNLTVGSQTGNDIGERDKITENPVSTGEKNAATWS

T4: PD-L2 (UniProt Q9BQ51 20-219)
T4 construct: not shown: His tag
T4 sequence (looked up): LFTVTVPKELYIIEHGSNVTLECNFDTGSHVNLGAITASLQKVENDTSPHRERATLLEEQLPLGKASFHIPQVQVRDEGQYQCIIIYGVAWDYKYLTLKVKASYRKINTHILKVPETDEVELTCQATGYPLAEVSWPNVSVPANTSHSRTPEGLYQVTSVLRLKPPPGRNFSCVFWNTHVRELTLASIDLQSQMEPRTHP

T5: B7-1 (UniProt P33681 35-242)
T5 construct: not shown: His tag
T5 sequence (looked up): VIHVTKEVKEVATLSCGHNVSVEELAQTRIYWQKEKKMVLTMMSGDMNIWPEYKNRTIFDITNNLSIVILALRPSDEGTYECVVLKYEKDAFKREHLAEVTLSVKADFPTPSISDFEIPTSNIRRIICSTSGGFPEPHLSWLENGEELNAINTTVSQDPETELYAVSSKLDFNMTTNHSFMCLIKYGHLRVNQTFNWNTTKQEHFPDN

T6: B7-H7 (UniProt Q9UM44 23-344)
T6 construct: not shown: His tag
T6 sequence (looked up): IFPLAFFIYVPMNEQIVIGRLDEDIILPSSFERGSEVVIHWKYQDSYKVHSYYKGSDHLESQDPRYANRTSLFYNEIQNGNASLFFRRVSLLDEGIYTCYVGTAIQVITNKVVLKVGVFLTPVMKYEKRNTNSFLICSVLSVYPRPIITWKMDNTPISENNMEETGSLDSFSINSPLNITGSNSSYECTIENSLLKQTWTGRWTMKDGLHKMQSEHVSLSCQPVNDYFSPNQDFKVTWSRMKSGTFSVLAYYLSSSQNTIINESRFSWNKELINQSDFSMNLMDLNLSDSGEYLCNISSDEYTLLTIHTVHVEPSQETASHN

T7: B7-H6 (UniProt Q68D85 25-262)
T7 construct: not shown: His tag
T7 sequence (looked up): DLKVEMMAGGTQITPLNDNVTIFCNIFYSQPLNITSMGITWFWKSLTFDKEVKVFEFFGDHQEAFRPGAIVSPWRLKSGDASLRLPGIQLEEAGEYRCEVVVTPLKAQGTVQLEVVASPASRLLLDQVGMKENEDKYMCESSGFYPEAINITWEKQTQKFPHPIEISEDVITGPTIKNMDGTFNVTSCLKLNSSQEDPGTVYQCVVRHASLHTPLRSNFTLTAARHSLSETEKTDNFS

T8: B7-H5 (UniProt Q9H7M9 33-194)
T8 construct: The name B7-H5 is ambiguous in the literature; not shown: His tag
T8 sequence (looked up): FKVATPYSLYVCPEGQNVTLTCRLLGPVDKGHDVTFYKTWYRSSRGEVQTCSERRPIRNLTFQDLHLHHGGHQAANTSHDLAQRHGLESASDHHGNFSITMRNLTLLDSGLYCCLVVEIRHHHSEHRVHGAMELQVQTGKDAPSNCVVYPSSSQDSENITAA

T9: B7-H3 on NCI-H446 cells (UniProt Q5ZPR3 29-534)
T9 construct: whole, on cells
T9 sequence (looked up): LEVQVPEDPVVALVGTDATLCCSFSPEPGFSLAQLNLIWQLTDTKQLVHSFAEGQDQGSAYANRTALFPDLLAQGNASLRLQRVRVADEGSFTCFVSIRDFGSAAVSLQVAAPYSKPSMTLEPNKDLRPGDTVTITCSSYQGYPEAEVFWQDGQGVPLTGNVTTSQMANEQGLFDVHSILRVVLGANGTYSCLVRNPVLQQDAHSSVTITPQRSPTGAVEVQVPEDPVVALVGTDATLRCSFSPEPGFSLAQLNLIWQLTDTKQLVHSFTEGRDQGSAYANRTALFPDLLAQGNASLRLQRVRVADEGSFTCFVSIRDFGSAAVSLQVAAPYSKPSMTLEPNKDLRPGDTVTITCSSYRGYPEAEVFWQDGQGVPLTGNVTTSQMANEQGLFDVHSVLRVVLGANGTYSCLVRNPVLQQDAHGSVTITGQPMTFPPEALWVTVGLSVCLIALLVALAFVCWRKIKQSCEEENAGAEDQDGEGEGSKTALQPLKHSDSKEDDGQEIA

B1: cAb1-z3-p7 (antibody, human IgG1, kappa, V domains shown)
VH: EVQLVESGGGLVKPGGSLRLSCAASGFTFSSYGMSWVRQAPGKRLEWVSSISGSGSYTYYPDSLKGRFTISRDNAKNSLYLQMNSLRAEDTAVYYCARQQGYWYFDVWGQGTTVTVSS
VL: DVVMTQTPLSLPVTPGEPASISCRASQSLASSYGKTYLSWYLQKPGQSPQLLIYGISNRFSGVPDRFSGSGSGTDFTLKISRVEAEDVGVYYCLHGTHQPLTFGQGTKLEIKR
notes: Humanized from 48-B4-F4-E4; Human IgG1 / kappa; also called cAbl-z3-p7
B2: cAb1-z0-p7 (antibody, human IgG1, kappa, V domains shown)
VH: B1 VH with R44G
VL: B1 VL with V2I
notes: Humanized from 48-B4-F4-E4; Human IgG1 / kappa
B3: cAb1-z5-p7 (antibody, human IgG1, kappa, V domains shown)
VH: B1 VH with S49A
VL: B1 VL
notes: Humanized from 48-B4-F4-E4; Human IgG1 / kappa; also called cAbl-z5-p7

Each binder was assayed against T10, B7-H3 Cyno-His (cynomolgus monkey) (assay: SPR, Biacore 8K, antibody captured by anti-human IgG Fc on CM5, B7-H3 Cyno-His as analyte, 1:1 model).
T10 construct: also called cynomolgus monkey B7-H3

Question: With B1 as the binder, how does the Kd read?
Answer: 3.87 nM

Question: And the koff?
Answer: 5.82e-05 s⁻¹

Question: What about the kon of the same binder?
Answer: 15100 M⁻¹ s⁻¹

Question: With B2 as the binder, how does the Kd read?
Answer: 7.86 nM

Question: And the koff?
Answer: 7.68e-05 s⁻¹

Question: What about the kon of the same binder?
Answer: 9770 M⁻¹ s⁻¹

Question: Which results are given for B3?
Answer: Kd: 3.9 nM; koff: 6.17e-05 s⁻¹; kon: 15800 M⁻¹ s⁻¹

What follows are binders tested against T1, B7-H4 (assay: ELISA, His-tagged antigen coated at 1 µg/mL, HRP-Protein A detection).

Question: Does B1 bind?
Answer: no binding (tested: starting concentration 10 µg/ml)

Question: Does B2 bind?
Answer: no binding (tested: starting concentration 10 µg/ml)

Question: Does B3 bind?
Answer: no binding (tested: starting concentration 10 µg/ml)

Each binder was assayed against T2, B7-2 in the same assay as above.

Question: Does B1 bind?
Answer: no binding (tested: starting concentration 10 µg/ml)

Question: Does B2 bind?
Answer: no binding (tested: starting concentration 10 µg/ml)

Question: Does B3 bind?
Answer: no binding (tested: starting concentration 10 µg/ml)

What follows are binders tested against T3, B7-H2 in the same assay as above.

Question: Does B1 bind?
Answer: no binding (tested: starting concentration 10 µg/ml)

Question: Does B2 bind?
Answer: no binding (tested: starting concentration 10 µg/ml)

Question: Does B3 bind?
Answer: no binding (tested: starting concentration 10 µg/ml)

The binders below were run against T4, PD-L2 in the same assay as above.

Question: Does B1 bind?
Answer: no binding (tested: starting concentration 10 µg/ml)

Question: Does B2 bind?
Answer: no binding (tested: starting concentration 10 µg/ml)

Question: Does B3 bind?
Answer: no binding (tested: starting concentration 10 µg/ml)

Each binder was assayed against T5, B7-1 in the same assay as above.

Question: Does B1 bind?
Answer: no binding (tested: starting concentration 10 µg/ml)

Question: Does B2 bind?
Answer: no binding (tested: starting concentration 10 µg/ml)

Question: Does B3 bind?
Answer: no binding (tested: starting concentration 10 µg/ml)

Each binder was assayed against T6, B7-H7 in the same assay as above.

Question: Does B1 bind?
Answer: no binding (tested: starting concentration 10 µg/ml)

Question: Does B2 bind?
Answer: no binding (tested: starting concentration 10 µg/ml)

Question: Does B3 bind?
Answer: no binding (tested: starting concentration 10 µg/ml)

The binders below were run against T7, B7-H6 in the same assay as above.

Question: Does B1 bind?
Answer: no binding (tested: starting concentration 10 µg/ml)

Question: Does B2 bind?
Answer: no binding (tested: starting concentration 10 µg/ml)

Question: Does B3 bind?
Answer: no binding (tested: starting concentration 10 µg/ml)

These binders were tested against T8, B7-H5 in the same assay as above.

Question: Does B1 bind?
Answer: no binding (tested: starting concentration 10 µg/ml)

Question: Does B2 bind?
Answer: no binding (tested: starting concentration 10 µg/ml)

Question: Does B3 bind?
Answer: no binding (tested: starting concentration 10 µg/ml)

What follows are binders tested against T11, hB7-H1 (PD-L1) (human, UniProt Q9NZQ7 19-238) in the same assay as above.
T11 construct: Species read from the printed prefix h; not shown: His tag
T11 sequence (Q9NZQ7 19-238 limits assumed): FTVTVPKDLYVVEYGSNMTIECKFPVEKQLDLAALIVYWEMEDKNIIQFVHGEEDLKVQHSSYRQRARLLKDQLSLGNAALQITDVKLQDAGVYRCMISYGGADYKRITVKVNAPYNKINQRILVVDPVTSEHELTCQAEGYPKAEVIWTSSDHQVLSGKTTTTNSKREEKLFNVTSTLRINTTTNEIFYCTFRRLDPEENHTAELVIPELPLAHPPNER

Question: Does B1 bind?
Answer: no binding (tested: starting concentration 10 µg/ml)

Question: Does B2 bind?
Answer: no binding (tested: starting concentration 10 µg/ml)

Question: Does B3 bind?
Answer: no binding (tested: starting concentration 10 µg/ml)

What follows are binders tested against T9, B7-H3 on NCI-H446 cells (assay: flow cytometry on NCI-H446 cells, goat anti-human Fc secondary).

Question: With B1 as the binder, how does the EC50 read?
Answer: 4.66 nM

Question: B2 was tested. Which EC50 did it give?
Answer: 9.7 nM

Question: With B3 as the binder, how does the EC50 read?
Answer: 3.69 nM
